Where a chain is given by its changes, count along the chain named.
B1: feline IgG1a Fc: wild-type feline IgG1a Fc polypeptide (protein)
chain 1: RKTDHPPGPKTGEGPKCPPPEMLGGPSIFIFPPKPKDTLSISRTPEVTCLVVDLGPDDSDVQITWFVDNTQVYTAKTSPREEQFNSTYRVVSVLPILHQDWLKGKEFKCKVNSKSLPSPIERTISKAKGQPHEPQVYVLPPAQEELSENKVSVTCLIKSFHPPDIAVEWEITGQPEPENNYRTTPPQLDSDGTYFVYSKLSVDRSHWQRGNTYTCSVSHEALHSHHTQKSLTQSPGK
chain 2: B1 chain 1 with T11P, G12C, E13D, G14C
modifications: Alternative wild-type feline IgG1a Fc, Protein A +, C1q +; Wild-type feline IgG1a Fc, Protein A +, C1q +
notes: wild-type feline IgG1a Fc polypeptide
B2: feline IgG1b Fc: wild-type feline IgG1b Fc polypeptide (protein)
chain 1: B1 chain 1 with A127D, K158E, S159G, H161Y, P163S, V196L, K199R, H206R
chain 2: RKTDHPPGPKPCDCPKCPPPEMLGGPSIFIFPPKPKDTLSISRTPEVTCLVVDLGPDDSDVQITWFVDNTQVYTAKTSPREEQFNSTYRVVSVLPILHQDWLKGKEFKCKVNSKSLPSPIERTISKDKGQPHEPQVYVLPPAQEELSENKVSVTCLIEGFYPSDIAVEWEITGQPEPENNYRTTPPQLDSDGTYFLYSRLSVDRSRWQRGNTYTCSVSHEALHSHHTQKSLTQSPGK
modifications: Alternative wild-type feline IgG1b Fc, Protein A +, C1q +; Wild-type feline IgG1b Fc, Protein A +, C1q +
notes: wild-type feline IgG1b Fc polypeptide
B3: equine IgG3 Fc: wild-type equine IgG3 Fc polypeptide (protein)
chain: GGPSVFIFPPKPKDVLMITRMPEVTCLVVDVSHDSSDVLFTWYVDGTEVKTAKTMPNEEQNNSTYRVVSVLRIQHQDWLNGKKFKCKVNNQALPAPVERTISKATGQTRVPQVYVLAPHPDELSKNKVSVTCLVKDFYPPDITVEWQSNEHPEPEGKYRTTEAQKDSDGSYFLYSKLTVEKDRWQQGTTFTCVVMHEALHNHVMQKNISKNPGK
modifications: Wild-type equine IgG3 Fc, Protein A +, C1q+
notes: wild-type equine IgG3 Fc polypeptide
B4: equine IgG1 Fc: wild-type equine IgG1 Fc polypeptide (protein)
chain: GGPSVFLFPPNPKDTLMITRTPEVTCVVVDVSQENPDVKFNWYMDGVEVRTATTRPKEEQFNSTYRVVSVLRIQHQDWLSGKEFKCKVNNQALPQPIERTITKTKGRSQEPQVYVLAPHPDESKKSKVSVTCLVKDFYPPEINIEWQSNGQPELETKYSTTQAQQDSDGSYFLYSKLSVDRNRWQQGTTFTCGVMHEALHNHYTQKNVSKNPGK
modifications: Wild-type equine IgG1 Fc , Protein A +, C1q +
notes: wild-type equine IgG1 Fc polypeptide
B5: equine IgG6 Fc: wild-type equine IgG6 Fc polypeptide (protein)
chain: GRPSVFIFPPNPKDTLMISRTPEVTCVVVDVSQENPDVKFNWYVDGVEAHTATTKAKEKQDNSTYRVVSVLPIQHQDWRRGKEFKCKVNNRALPAPVERTITKAKGELQDPQVYILAPHPDEVTKNTVSVTCLVKDFYPPDINVEWQSNEEPEPEVKYSTTPAQLDGDGSYFLYSKLTVETDRWEQGESFTCVVMHEAIRHTYRQKSITNFPGK
modifications: Wild-type equine IgG6 Fc, Protein A -, C1q -
notes: wild-type equine IgG6 Fc polypeptide
B6: equine IgG2 Fc: wild-type equine IgG2 Fc polypeptide (protein)
chain 1: DMSKCPKCPAPELLGGPSVFIFPPNPKDALMISRTPVVTCVVVNLSDQYPDVQFSWYVDNTEVHSAITKQREAQFNSTYRVVSVLPIQHQDWLSGKEFKCSVTNVGVPQPISRAISRGKGPSRVPQVYVLPPHPDELAKSKVSVTCLVKDFYPPDISVEWQSNRWPELEGKYSTTPAQLDGDGSYFLYSKLSLETSRWQQVESFTCAVMHEALHNHFTKTDISESLGK
chain 2: GGPSVFIFPPNPKDALMISRTPVVTCVVVNLSDQYPDVQFSWYVDNTEVHSAITKQREAQFNSTYRVVSVLPIQHQDWLSGKEFKCSVTNVGVPQPISRAISRGKGPSRVPQVYVLPPHPDELAKSKVSVTCLVKDFYPPDISVEWQSNRWPELEGKYSTTPAQLDGDGSYFLYSKLSLETSRWQQVESFTCAVMHEALHNHFTKTDISESLGK
modifications: Synthetic Variant equine Fc IgG2 (with equine IgG1 hinge), Protein A - , C1q -; Wild-type equine IgG2 Fc, Protein A -, C1q -
notes: wild-type equine IgG2 Fc polypeptide
B7: equine IgG4 Fc: wild-type equine IgG4 Fc polypeptide (protein)
chain: VGPSVFIFPPKPKDVLMISRTPTVTCVVVDVGHDFPDVQFNWYVDGVETHTATTEPKQEQFNSTYRVVSVLPIQHKDWLSGKEFKCKVNNKALPAPVERTISAPTGQPREPQVYVLAPHRDELSKNKVSVTCLVKDFYPPDIDIEWKSNGQPEPETKYSTTPAQLDSDGSYFLYSKLTVETNRWQQGTTFTCAVMHEALHNHYTEKSVSKSPGK
modifications: Wild-type equine IgG4 Fc, Protein A +, C1q +
notes: wild-type equine IgG4 Fc polypeptide
B8: equine IgG7 Fc: wild-type equine IgG7 Fc polypeptide (protein)
chain: B7 chain with F61N, V70I, P72A, K91Q, E98Q, R99K, A103K, R120P, S167G
modifications: Wild-type equine IgG7 Fc, Protein A +, C1q +
notes: wild-type equine IgG7 Fc polypeptide
B9: equine IgG5 Fc: wild-type equine IgG5 Fc polypeptide (protein)
chain: GGPSVFIFPPKPKDVLMISRKPEVTCVVVDLGHDDPDVQFTWFVDGVETHTATTEPKEEQFNSTYRVVSVLPIQHQDWLSGKEFKCSVTSKALPAPVERTISKAKGQLRVPQVYVLAPHPDELAKNTVSVTCLVKDFYPPEIDVEWQSNEHPEPEGKYSTTPAQLNSDGSYFLYSKLSVETSRWKQGESFTCGVMHEAVENHYTQKNVSHSPGK
modifications: Wild-type equine IgG5 Fc, Protein A -, C1q -
notes: wild-type equine IgG5 Fc polypeptide
B10: GLP1-G8/GLP1-2G_III_VARfeIgG2: Formula III GLP1 contiguous polypeptide comprising variant feline IgG2 Fc of SEQ ID NO: 17 (Gly to Cys at position 14) (protein)
chain: HGEGTFTSDVSSYLEGQAAKEFIAWLVKGGGGSGGGGSGGGGSGGGGSPKTASTIESKTGECPKCPVPEIPGAPSVFIFPPKPKDTLSISRTPEVTCLVVDLGPDDSNVQITWFVDNTEMHTAKTRPREEQFNSTYRVVSVLPILHQDWLKGKEFKCKVNSKSLPSAMERTISKAKGQPHEPQVYVLPPTQEELSENKVSVTCLIKGFHPPDIAVEWEITGQPEPENNYQTTPPQLDSDGTYFLYSRLSVDRSHWQRGNTYTCSVSHEALHSHHTQKSLTQSPGKGGGGSGGGGHAEGTFTSDVSSYLEGQAAKEFIAWLVKGGG
modifications: Synthetic GLP1-G8/GLP1-2G_III_ VARfeIgG2
B11: feline IgG2 Fc: wild-type feline IgG2 Fc polypeptide (protein)
chain: PKTASTIESKTGEGPKCPVPEIPGAPSVFIFPPKPKDTLSISRTPEVTCLVVDLGPDDSNVQITWFVDNTEMHTAKTRPREEQFNSTYRVVSVLPILHQDWLKGKEFKCKVNSKSLPSAMERTISKAKGQPHEPQVYVLPPTQEELSENKVSVTCLIKGFHPPDIAVEWEITGQPEPENNYQTTPPQLDSDGTYFLYSRLSVDRSHWQRGNTYTCSVSHEALHSHHTQKSLTQSPGK
modifications: Wild-type feline IgG2 Fc, Protein A +, C1q -
notes: wild-type feline IgG2 Fc polypeptide

What was measured:
[1] = molecular target: Protein A (Staphylococcus aureus, UniProt P38507); conditions: for Protein A Binding: Wild-type Equine IgG Fc
Description: In some embodiments, the KD of an IgG Fc polypeptide, such as a variant IgG Fc polypeptide, to Protein A or to C1q or to CD16 is measured by using biolayer interferometry assays using a biosensor, such as an Octet® System (Pall ForteBio LLC, Fremont, CA) according to the supplier's instructions. In brief, biotinylated Protein A or C1q or CD16 is bound to the sensor tip and the association of IgG Fc polypeptide is monitored for a specified time or until steady state is reached. Dissociation may be monitored for a specified time or until steady state is reached. A buffer only blank curve is subtracted to correct for any drift. The data are fit to a 2:1 binding model using ForteBio data analysis software to determine association rate constant (kon), dissociation rate constant (koff), and the Kd. The equilibrium dissociation constant (KD) is calculated as the ratio of koff/kon. The term “kon” refers to the rate constant for association of a molecule X to its partner Y and the term “koff” refers to the rate constant for dissociation of a molecule X or partner Y from the molecule X/partner Y complex.
Binding analysis may be performed using an Octet biosensor. Briefly, the target molecule (e.g., Protein A, C1q, CD16, etc.) may be biotinylated and free unreacted biotin removed (e.g., by dialysis). The biotinylated target molecule is captured on streptavidin sensor tips. Association of the target molecule with various concentrations (e.g., 10 μg/mL) of IgG Fc polypeptide is monitored for a specified time or until steady state is reached. Dissociation is monitored for a specified time or until steady state is reached. A buffer only blank curve may be subtracted to correct for any drift. The data are fit to a 1:1 binding model using ForteBio™ data analysis software to determine the kon, koff, and the Kd.

[2] = molecular target: C1q (Homo sapiens, UniProt P02745+P02746+P02747); assay: C1q binding of IgG Fc polypeptides (Octet biolayer interferometry described); on C1q binding: key: (−) denotes low or no measurable binding activity
C1q, sequence (P02745 23-245): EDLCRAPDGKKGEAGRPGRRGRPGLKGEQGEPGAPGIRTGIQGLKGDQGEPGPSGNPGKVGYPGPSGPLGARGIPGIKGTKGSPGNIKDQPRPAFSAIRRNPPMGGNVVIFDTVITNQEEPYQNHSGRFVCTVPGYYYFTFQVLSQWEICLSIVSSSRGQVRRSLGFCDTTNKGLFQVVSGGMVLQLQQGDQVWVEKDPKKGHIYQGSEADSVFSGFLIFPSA
C1q, sequence (P02746 28-253): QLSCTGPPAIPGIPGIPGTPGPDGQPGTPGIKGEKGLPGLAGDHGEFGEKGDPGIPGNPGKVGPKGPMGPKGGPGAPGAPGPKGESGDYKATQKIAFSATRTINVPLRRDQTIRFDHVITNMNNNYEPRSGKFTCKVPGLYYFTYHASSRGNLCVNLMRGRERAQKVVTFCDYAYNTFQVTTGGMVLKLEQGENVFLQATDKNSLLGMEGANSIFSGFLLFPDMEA
C1q, sequence (P02747 29-245): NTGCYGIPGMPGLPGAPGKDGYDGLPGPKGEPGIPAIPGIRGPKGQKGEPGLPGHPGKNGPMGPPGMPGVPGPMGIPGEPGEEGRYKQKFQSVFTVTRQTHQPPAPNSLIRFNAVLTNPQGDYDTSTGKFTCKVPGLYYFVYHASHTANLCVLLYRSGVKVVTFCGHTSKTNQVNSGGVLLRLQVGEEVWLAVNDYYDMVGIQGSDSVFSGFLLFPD
Excerpt: Binding analysis may be performed using an Octet biosensor.

[3] = Differential scanning fluorimetry, stability at various pH; assay type: physicochemical; conditions: n = 3, 10 μg construct
Excerpt: Furthermore, differential scanning fluorimetry was used to assess the stability of the contiguous polypeptides at various pH, as reflected by mean melting point temperature (n=3) (Table 9, below). The increased stability of the variant feline IgG2 hinge is most evident at pH 6.

Row | Molecule | Protein A binding affinity [1] | binding affinity to C1q [2] | further results
1 | B1 | have Protein A binding affinity | bind to C1q | 
2 | B2 | have Protein A binding affinity | bind to C1q | 
3 | B3 | have Protein A binding affinity | bind to C1q | 
4 | B4 | have Protein A binding affinity | bind to C1q | 
5 | B5 | weak or no measurable Protein A binding affinity | weak or no measurable binding affinity to C1q | Protein A Binding [1]: −; C1q Binding ([2]; Wild-type Equine IgG Fc): −
6 | B6 | weak or no measurable Protein A binding affinity | weak or no measurable binding affinity to C1q | Protein A Binding [1]: −; C1q Binding ([2]; Wild-type Equine IgG Fc): −
7 | B7 | have Protein A binding affinity | bind to C1q | 
8 | B8 | have Protein A binding affinity | bind to C1q | 
9 | B9 | weak or no measurable Protein A binding affinity | weak or no measurable binding affinity to C1q | Protein A Binding [1]: −; C1q Binding ([2]; Wild-type Equine IgG Fc): −
10 | B10 |  |  | Mean Melting Point Temperature (Tm) ([3]; pH 6): 56.9 °C; Mean Melting Point Temperature (Tm) ([3]; pH 7): 55 °C; Mean Melting Point Temperature (Tm) ([3]; pH 8): 52.5 °C
11 | B11 | have Protein A binding affinity | weak or no measurable binding affinity to C1q | C1q Binding ([2]; Wild-type Feline IgG Fc): −

From patent publication US12297272B2, “IgG Fc variants for veterinary use” (Elanco US Inc., priority 2017, dated 2025)
